Test results from the supplement of paper PMC6757056.
± gives the standard deviation of the averaged measurements.

B1: library; a variant is named by its letters at N, in order (parent)
chain: GCUGUCACCGGUGUAUUACCCUAGUGGUCGACCGGUCUGAUGAGUCUNNNNNNAGACGAAACAGC

Columns and labels:
hypoxanthine [1] = variants of: B1; assay: normalized RNA/DNA level with ligand (relative to sTRSVctl = 100) (log10 (% of sTRSVctl)); ligand: hypoxanthine (xanthine aptamer); higher = less ribozyme self-cleavage, higher mRNA level; conditions: ligand concentration (+) RNA-Seq: 5 mM, HEK293T, reporter: mCherry (pCS4076), ligand present: yes
How it was run: (§1)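 Total RNA, extracted with EDTA 72 h after HEK293T cells were transfected with 4 µg per 6-well well of reporter-linked ribozyme switch library plasmids, was reverse-transcribed, amplified, barcoded and sequenced. Ligand, if used, was added 1 h before transfection. RNA level was derived from RNA reads divided by DNA reads and normalized to a spiked-in non-cleaving sequence or to the top sequences. This was multiplied by 100 and log10-transformed, with the top set of 25 sequences and a ≥100 DNA read minimum.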

hypoxanthine [2] = variants of: B1; assay: normalized RNA/DNA level without ligand (relative to sTRSVctl = 100) (log10 (% of sTRSVctl)); ligand: hypoxanthine (xanthine aptamer); higher = less ribozyme self-cleavage, higher mRNA level; conditions: HEK293T, reporter: mCherry (pCS4076), ligand present: no
How it was run: as §1

Row | Variant | normalized RNA/DNA level with ligand (log10) (hypoxanthine [1]) | normalized RNA/DNA level without ligand (log10) (hypoxanthine [2])
1 | GCCGCC | 1.99 ± 0.068 | 1.81 ± 0.1
2 | GCCGCU | 1.98 ± 0.05 | 1.95 ± 0.046
3 | UCAUUC | 2.0015 ± 0.00059 | 1.9887 ± 0.00019
4 | UCAUUG | 1.91 ± 0.026 | 1.72 ± 0.043
5 | UCAUUA | 1.927 ± 0.0081 | 1.884 ± 0.0033
6 | UCCUUC | 1.93 ± 0.046 | 1.89 ± 0.062
7 | UCCUUA | 1.956 ± 0.015 | 1.87 ± 0.069
8 | UCCUUG | 1.91 ± 0.034 | 1.64 ± 0.022
9 | UCCUUU | 2.01 ± 0.04 | 1.94 ± 0.032
10 | CCAUGU | 1.913 ± 0.013 | 1.828 ± 0.016
11 | CCAUGC | 1.95 ± 0.051 | 1.88 ± 0.069
12 | ACCCCU | 1.967 ± 0.0051 | 1.892 ± 0.0077
13 | ACCCCC | 1.99 ± 0.16 | 1.879 ± 0.013
14 | ACCCCG | 1.86 ± 0.032 | 1.45 ± 0.063
15 | ACCCCA | 1.96 ± 0.031 | 1.86 ± 0.062
16 | UCCACU | 1.957 ± 0.0089 | 1.99 ± 0.07
17 | UCCACC | 2.02 ± 0.029 | 1.931 ± 0.018
18 | UCCACA | 1.96 ± 0.037 | 1.835 ± 0.0089
19 | CCCCCG | 1.92 ± 0.064 | 1.93 ± 0.044
20 | CCCCCA | 1.94 ± 0.029 | 1.889 ± 0.0072
21 | CCCCCU | 2.01 ± 0.038 | 1.976 ± 0.014
22 | GCCUUU | 1.94 ± 0.041 | 1.92 ± 0.039
23 | UCAGUC | 1.96 ± 0.056 | 1.9668 ± 0.0014

Row | Variant | normalized RNA/DNA level with ligand (log10) (hypoxanthine [1]) | normalized RNA/DNA level without ligand (log10) (hypoxanthine [2])
24 | UCAGUG | 1.93 ± 0.061 | 1.77 ± 0.067
25 | CCCGCU | 1.94 ± 0.056 | 1.99 ± 0.03
26 | CCCGCG | 1.9 ± 0.029 | 1.84 ± 0.019
27 | GCCUGG | 1.94 ± 0.062 | 1.5 ± 0.017
28 | GCCUGU | 1.93 ± 0.024 | 1.83 ± 0.015
29 | GCCUGC | 1.977 ± 0.012 | 1.86 ± 0.045
30 | CCCUAG | 1.89 ± 0.025 | 1.77 ± 0.12
31 | CCCUAC | 1.973 ± 0.018 | 1.9 ± 0.11
32 | CCCUAU | 1.971 ± 0.0087 | 1.94 ± 0.025
33 | GCCCUA | 1.97 ± 0.052 | 1.8733 ± 0.00068
34 | GCCCUC | 1.97 ± 0.035 | 1.88 ± 0.058
35 | CCAUAA | 1.914 ± 0.01 | 1.8 ± 0.031
36 | CCAUAG | 1.894 ± 0.013 | 1.55 ± 0.06
37 | UCGAAC | 1.929 ± 0.011 | 1.734 ± 0.012
38 | UCGAAU | 1.87 ± 0.043 | 1.476 ± 0.0078
39 | ACGAAC | 1.89 ± 0.036 | 1.58 ± 0.017
40 | CCCCGU | 1.94 ± 0.022 | 1.92 ± 0.055
41 | CCCCGC | 1.986 ± 0.019 | 1.9 ± 0.047
42 | CCCCGA | 1.95 ± 0.059 | 1.81 ± 0.025
43 | CCCCGG | 1.985 ± 0.0052 | 1.97 ± 0.035
44 | CCCAUA | 1.9 ± 0.06 | 1.89 ± 0.11
45 | CCCAUU | 2 ± 0.03 | 1.927 ± 0.0023
46 | CCCAUG | 1.933 ± 0.0045 | 1.81 ± 0.048

Row | Variant | normalized RNA/DNA level with ligand (log10) (hypoxanthine [1]) | normalized RNA/DNA level without ligand (log10) (hypoxanthine [2])
47 | ACCCGA | 1.95 ± 0.028 | 1.755 ± 0.0068
48 | ACCCGU | 1.94 ± 0.024 | 1.82 ± 0.048
49 | ACCCGC | 1.91 ± 0.02 | 1.815 ± 0.016
50 | CCCAAC | 1.96 ± 0.072 | 1.87 ± 0.023
51 | CCCAAU | 1.93 ± 0.026 | 1.83 ± 0.04
52 | UCCCAA | 1.918 ± 0.011 | 1.765 ± 0.0033
53 | UCCCAU | 1.93 ± 0.032 | 1.829 ± 0.0082
54 | UCCGAU | 1.965 ± 0.013 | 1.774 ± 0.0086
55 | UCCGAA | 1.94 ± 0.0047 | 1.631 ± 0.0036
56 | UCCGAC | 1.95 ± 0.022 | 1.796 ± 0.016
57 | GCAUCA | 1.94 ± 0.041 | 1.89 ± 0.035
58 | GCAUCC | 1.86 ± 0.069 | 1.82 ± 0.025
59 | GCAUCU | 1.98 ± 0.039 | 1.87 ± 0.004
60 | GCCUCC | 1.95 ± 0.043 | 1.95 ± 0.023
61 | GCCUCU | 2.011 ± 0.019 | 1.96 ± 0.02
62 | GCCUCA | 1.98 ± 0.07 | 1.9 ± 0.024
63 | CCCUUU | 2 ± 0.059 | 1.938 ± 0.0021
64 | CCCUUG | 1.984 ± 0.013 | 1.84 ± 0.045
65 | ACCGGA | 1.94 ± 0.039 | 1.903 ± 0.014
66 | ACCGGC | 2.001 ± 0.012 | 1.96 ± 0.073
67 | ACCGGU | 1.99 ± 0.076 | 1.844 ± 0.0038
68 | GCCGAC | 1.891 ± 0.0051 | 1.55 ± 0.032
69 | UCCAUU | 1.959 ± 0.0064 | 1.89 ± 0.05

Row | Variant | normalized RNA/DNA level with ligand (log10) (hypoxanthine [1]) | normalized RNA/DNA level without ligand (log10) (hypoxanthine [2])
70 | UCCAUA | 1.899 ± 0.018 | 1.88 ± 0.024
71 | UCAUAU | 1.88 ± 0.029 | 1.77 ± 0.041
72 | UCCGGC | 2.019 ± 0.0041 | 1.85 ± 0.056
73 | UCCGGU | 1.98 ± 0.037 | 1.83 ± 0.054
74 | GCAUGU | 1.9 ± 0.03 | 1.68 ± 0.043
75 | GCAUGA | 1.94 ± 0.042 | 1.71 ± 0.029
76 | UCAUCC | 2.032 ± 0.0044 | 2 ± 0.049
77 | UCAUCG | 1.99 ± 0.049 | 1.83 ± 0.058
78 | UCAUCU | 2.026 ± 0.011 | 1.99 ± 0.059
79 | GCCACU | 1.99 ± 0.065 | 1.965 ± 0.0028
80 | GCCACA | 1.958 ± 0.0033 | 1.871 ± 0.0054
81 | GCCACG | 1.905 ± 0.0023 | 1.656 ± 0.0069
82 | GCCACC | 1.905 ± 0.011 | 1.834 ± 0.0019
83 | GCAUAG | 1.862 ± 0.011 | 1.43 ± 0.078
84 | GCAUAC | 1.904 ± 0.014 | 1.62 ± 0.049
85 | CCCCAG | 1.84 ± 0.062 | 1.77 ± 0.047
86 | CCCCAC | 1.987 ± 0.018 | 1.9 ± 0.073
87 | CCCCAU | 1.93 ± 0.036 | 1.87 ± 0.046
88 | ACCCUC | 1.936 ± 0.0052 | 1.895 ± 0.00022
89 | ACCCUU | 1.974 ± 0.013 | 1.92 ± 0.06
90 | ACCCUA | 1.937 ± 0.014 | 1.85 ± 0.047
91 | ACCUGC | 1.99 ± 0.051 | 1.912 ± 0.016
92 | ACCUGU | 1.9472 ± 0.00096 | 1.81 ± 0.033

Row | Variant | normalized RNA/DNA level with ligand (log10) (hypoxanthine [1]) | normalized RNA/DNA level without ligand (log10) (hypoxanthine [2])
93 | CCCGGU | 2 ± 0.069 | 1.92 ± 0.071
94 | CCCGGC | 2 ± 0.041 | 1.859 ± 0.0099
95 | UCCUAU | 1.957 ± 0.0089 | 1.851 ± 0.0031
96 | UCCUAG | 1.91 ± 0.066 | 1.65 ± 0.038
97 | UCCUAA | 1.956 ± 0.019 | 1.807 ± 0.017
98 | GCCCCA | 1.965 ± 0.0094 | 1.85 ± 0.05
99 | GCCCCU | 1.93 ± 0.029 | 1.933 ± 0.0028
100 | GCCCCC | 1.95 ± 0.033 | 1.83 ± 0.078
101 | GCCCCG | 1.92 ± 0.05 | 1.52 ± 0.021
102 | GCAGUU | 1.9707 ± 0.00023 | 1.855 ± 0.015
103 | GCAGUA | 1.948 ± 0.012 | 1.772 ± 0.0069
104 | CCCGUU | 1.93 ± 0.056 | 1.9 ± 0.024
105 | CCCGUA | 1.92 ± 0.015 | 1.85 ± 0.035
106 | CCCGUC | 2.027 ± 0.018 | 2.021 ± 0.019
107 | CCCGUG | 1.97 ± 0.026 | 1.812 ± 0.0064
108 | UCAUGG | 1.9 ± 0.034 | 1.69 ± 0.049
109 | UCAUGU | 1.92 ± 0.038 | 1.628 ± 0.0081
110 | UCAUGC | 1.95 ± 0.0044 | 1.882 ± 0.014
111 | CCAUUG | 1.9 ± 0.056 | 1.8 ± 0.022
112 | CCAUUU | 1.91 ± 0.021 | 1.86 ± 0.066
113 | CCAUUA | 1.929 ± 0.017 | 1.84 ± 0.039
114 | ACCGUU | 1.91 ± 0.06 | 1.835 ± 0.011
115 | ACCGUC | 1.982 ± 0.0058 | 2 ± 0.026
